# System: B16.F10 tumors
# Test: Tumor growth of B16.F10 tumors subcutaneously implanted in mice
# Assay type: in vivo
# Settings: ISF35 combination therapy versus agonist CD40 antibody combination therapy; B16.F10 tumors subcutaneously implanted in C54/BL6 mice
# From the text: Tumor growth curves of B16.F10 tumors subcutaneously implanted in C54/BL6 mice. Individual animal tumor growth curves are shown.
molecule,measurement,value
"ISF35: chimeric CD154 polypeptide; domain IV of human CD154 linked to domains I, II and III of human CD154; SEQ ID NO 6 (protein, ISF35 (MEM40)) MIETYNQTSPRSAATGLPISMKIFMYLLTVFLITQMIGSALFAVYLHRRLDKIEDERNLHEDFVFMKTIQRCNTGERSLSLLNCEEIKSQFEGFVKDIMLNKEETKKDEDPQIAAHVVSEANSNAASVLQWAKKGYYTMKSNLVTLENGKQLTVKRQGLYYIYAQVTFCSNREASSQAPFIVGLWLKPSSGSERILLKAANTHSSSQLCEQQSIHLGGVFELQPGASVFVNVTDPSQVSHGTGFTSFGLLKL",Tumor growth curves (activity of combination therapy),Superior activity
